# According to patent US20210347873A1 (SHANGHAI PHARMAEXPLORER, published 2021):
# T1: cynomolgus BLyS (full length, arginine 132 mutated to histidine) on CHO-K1 cells (cynomolgus, UniProt Q9Y275 1-285 (human entry))
# T1 construct: also called cyno BLyS; CHO-K1 cynoBLyS
# T1 chain: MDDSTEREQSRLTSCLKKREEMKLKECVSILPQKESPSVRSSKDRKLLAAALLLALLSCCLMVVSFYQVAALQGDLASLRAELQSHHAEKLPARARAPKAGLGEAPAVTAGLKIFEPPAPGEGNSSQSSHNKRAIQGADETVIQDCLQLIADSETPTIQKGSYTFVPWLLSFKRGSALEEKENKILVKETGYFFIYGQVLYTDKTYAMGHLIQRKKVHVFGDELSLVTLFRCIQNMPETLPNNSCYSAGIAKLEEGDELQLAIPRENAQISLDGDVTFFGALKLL
# T2: human APRIL protein (human, UniProt O75888 105-250, limits assumed)
# T2 construct: Bought protein; also called recombinant APRIL protein
# T2 sequence (looked up): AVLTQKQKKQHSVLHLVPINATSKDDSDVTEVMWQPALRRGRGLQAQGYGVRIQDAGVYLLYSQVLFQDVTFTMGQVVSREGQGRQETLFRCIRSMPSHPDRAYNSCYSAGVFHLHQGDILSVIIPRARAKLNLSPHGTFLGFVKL
# B1: 2-1G11 (antibody, human IgG1, V domains shown)
# VH: EVQLVESRGGVVQPGRSLRLSCAASGFTFSSYGMHWVRQAPGKGLEWVAVISYDGSNKYYADSVKGRFTISRDNSKNTLYLQMNSLRAEDAAVYYCARDRVDILTGYSIYGMDVWGQGTTVTVSS
# VL: EIVMTQSPATLSLSPGERATLSCRASQSVSSYLAWYQQKPGQAPRLLIYDASKRATGIPARFSGSGSGTDFTLTISSLEPEDFAVYYCQQRSNWPLTFGGGTKVEIK
# B2: 35E6F7C3 (antibody, V domains shown)
# VH: EVQLQQSGAELVKPGASVKLSCTAAGFNIQDTYIHWVKQRPEQGLEWIGRIDPANANTVYDPKFQGKATITADTSSNTAYLQVSSLTSEDTAVYYCASPVITAGFAYWGQGTLVTVSA
# VL: QIVLTQSPAIMSASPGEKVTMTCGASSSVNYVHWYQQKSGTSPKRWIYDTSKLASGVPARFSGSGSGTSYSLTISSMEAEDAATYYCQQWTRSPLTFGAGTKVELK
# notes: Mouse hybridoma antibody purified on Protein G
# B3: 78C11D2D12 (antibody, V domains shown)
# VH: QVQLQQSGAELVRPGTSVKISCKASGYAFTNYWLGWVKQRPGHGLEWIGDIYPGSGNTYYNEKFKGKATLTADKSSSTAYMQLSSLTSEDSAVFFCAAYLYAMDYWGQGTSVTVSS
# VL: QIVLTQSPAIMSASPGEKVTITCSASSSVSYMHWFQQKPGTSPKLWIYSASNLASGVPARFSGSGSGTSYSLTISRMEAEDAATYYCQQRGSYPFTFGSGTKLEIK
# notes: as for B2
# B4: 97E7B3F2 (antibody, V domains shown)
# VH: EVQLQQSGPELVKSGASVKISCKASGYTFTDHKMHWVKQSHGKSLEWIGYISPYNGGTGYNQKFKSKVTLTVDISSSTAYMELRSLTSEDSAVYYCARWGFYDVMDSWGQGTSVTVSS
# VL: DVLLTQTPLSLPVSLGDQASISCRSSQTIVHIIGDTYLEWYLQKPGQSPKLLIYKVSNRFSGVPDRFSGSGAGTDFTLKISRVEAEDLGVYYCFQGSHVPRTFGGGTKLEIK
# notes: as for B2
# B5: 93C6F10D3 (antibody, V domains shown)
# VH: EVQLVESGGGLVTPGGSLKLSCVASGFAFSTYGMSWVRQTPERRLEWVAYISGGGGSIYYPDSVKGRFTISRDNAKNILYLQMSSLKSEDTAMYHCTRHPDLLLRYDYALDHWGQGTSVTVSS
# VL: DIQMTQSPASLSASVGETVTITCRASENIHIYLAWYQQKQGKSPQLLVYNGKTLADGVPSRFSGSGSGTQYSLKINTLQPEDFGNYYCQHFWNSTWTFGGGTKLEIK
# notes: as for B2
# B6: 20D1B6E9E5 (antibody, V domains shown)
# VH: EVQLQQSVAELVRPGASVKLSCTASDFNIKNTYIHWVKQRPEQGLEWIGRIDPVNGNTKYAPKFQDKATIIVDTYSNTAYLQLSSLASEDTAVYYCARWPITTIVATDWYFDVWGTGTTVTVSS
# VL: DVLMTQTQLALPVRLGEQASISCRSSQSIVNSNGNTYLEWYLQKPGQSPKLLIYKVSNRFSGVPDRFSGSGSGTDFTLKISRVEAEDLGVYYCFQGSHVPWTFGGGTKLEIK
# notes: as for B2
# B7: 89A2G5E7 (antibody, V domains shown)
# VH: QVQLKESGPGLVAPSQSLSITCTVSGLSLNSHDISWIRQPPGKGLEWLGVIWSGGGTKYNSAFMSRLSISKDNSKSQVFLKMNSLHTDDTAIYYCVRTPSMITYSAMDYWGQGTSVTVSS
# VL: EIVLTQSPALMAASPGEKVTITCSVSSSISSRNLHWYQQKSQTSPKAWIHATSNLASGVPVRFSGSGSGTSYSLTISSMEAEDAATYYCQQWSSYPLTFGSGTKLEIK
# notes: as for B2
# Target: T1, cynomolgus BLyS (full length, arginine …)
# Assay: flow cytometry (FACS) on CHO-K1 cynoBLyS cells, Alexa 488 secondary antibody
# Protocol: (§1) The medium was aspirated completely, and the cells were rinsed once with PBS buffer (purchased from Invitrogen) and then treated with cell dispersion solution (TrypLE™ Express Enzyme, purchased from Life technology) and collected. The detailed steps are as follows: the cells were rinsed once with PBS buffer, after counting, the cells were diluted to 2×10⁶ cells/ml with PBS buffer, blocked with 2% (w/w) fetal bovine serum and incubated on ice for 30 minutes. 200 μL of which per well was aliquoted into a 96-well FACS plate and centrifuged at 2000 rpm at 4° C., then each 100 μL of the lead antibodies obtained from Embodiment 1 and 2 were aliquoted into each well and incubated on ice for 1 hour. […] After centrifuged and rinsed 3 times with FACS buffer, cells were suspended with 200 μL of FACS buffer and the results were detected and analyzed by FACS (FACS Calibur, purchased from BD). It was shown in Tables 12-13 that the lead antibody could bind to human BLyS protein on the cell surface and the lead antibody could cross-react with cynomolgus BLyS. The data in the table is MFI, the average fluorescence intensity of the cell population.
row,EC50 (read off the curve) [nM],Binder
1,~0.1,B1
2,~0.7,B2
3,~0.2,B3
4,~0.1,B4
5,~0.1,B5
6,~0.2,B6
7,~0.7,B7

# Target: T2, human APRIL protein
# Assay: ELISA: APRIL coated at 1.0 µg/mL, antibody titrated, HRP secondary antibody
# Protocol: (§2) To test whether the BLyS antibody cross-reacted with human APRIL protein, APRIL protein (purchased from R & D Systems) was first diluted to a final concentration of 1.0 μg/mL with PBS, and then 50 μL of which per well was aliquoted into a 96-well ELISA plate, and the plate was subsequently sealed with plastic film and incubated at 4° C. overnight. On the next day the plate was rinsed four times with the plate washing buffer [PBS buffer containing 0.0500 (v/v) Tween20] and a blocking solution [PBS buffer containing 0.05 (v/v) Tween20 and 1 (w/w) BSA] was added, then the protein was blocked at 37° C. for 2 hours. The blocking solution was removed and 100 μL per well of the lead antibodies prepared in Embodiment 1 and 2 were added in. After incubation for 1 hour at 37° C., the plate was rinsed four times with the plate washing buffer [PBS buffer containing 0.05 (v/v) Tween20]. HRP-labeled (horseradish peroxidase) secondary antibody (purchased from Sigma) was added in and incubated at 37° C. for 1 hour. The plate was then rinsed four times with the plate washing buffer [PBS buffer containing 0.050 (v/v) Tween20]. 100 μL of TMB substrate was aliquoted into each well and after incubation at room temperature for 5 minutes, 100 μL of stop solution (1.0 N HCl) was aliquoted into each well. A₄₅₀ₙₘ values were read via an ELISA plate reader (SpectraMax M5e purchased from Molecular Devices) and the results were shown in FIGS. 6A-6B and Table 11. […] As used herein, the IgG control is human IgG and the data in the table is GD number at 450 nm.
row,binding result,Binder
1,no binding (tested: 66.7 nM),B1
2,no binding (tested: 66.7 nM),B2
3,no binding (tested: 66.7 nM),B3
4,no binding (tested: 66.7 nM),B7

# Target: T2, human APRIL protein
# Assay: ELISA, coated APRIL; antibody 13.3 nM
# Protocol: as §2
row,OD450 nm,Binder
1,0.137,B1
2,0.0567,B2
3,0.0703,B3
4,0.0973,B7

# Target: T2, human APRIL protein
# Assay: ELISA, coated APRIL; antibody 0.00427 nM
# Protocol: as §2
row,OD450 nm,Binder
1,0.107,B1
2,0.0553,B2
3,0.0564,B3
4,0.0578,B7

# Target: T2, human APRIL protein
# Assay: ELISA, coated APRIL; antibody 0.107 nM
# Protocol: as §2
row,OD450 nm,Binder
1,0.0699,B1
2,0.0537,B2
3,0.0549,B3
4,0.0548,B7

# Target: T2, human APRIL protein
# Assay: ELISA, coated APRIL; antibody 66.7 nM
# Protocol: as §2
row,OD450 nm,Binder
1,0.296,B1
2,0.0703,B2
3,0.138,B3
4,0.196,B7

# Target: T3, human BLyS (full length, arginine 132 mutated to histidine) on CHO-K1 cells (human, UniProt Q9Y275 1-285)
# T3 construct: also called hBLyS; CHO-K1 hBLyS
# Assay: flow cytometry (FACS) on CHO-K1 hBLyS cells, Alexa 488 secondary antibody
# Protocol: as §1
# T3 sequence (Q9Y275 other isoform, or with tags, fused parts or gaps limits assumed, change not shown): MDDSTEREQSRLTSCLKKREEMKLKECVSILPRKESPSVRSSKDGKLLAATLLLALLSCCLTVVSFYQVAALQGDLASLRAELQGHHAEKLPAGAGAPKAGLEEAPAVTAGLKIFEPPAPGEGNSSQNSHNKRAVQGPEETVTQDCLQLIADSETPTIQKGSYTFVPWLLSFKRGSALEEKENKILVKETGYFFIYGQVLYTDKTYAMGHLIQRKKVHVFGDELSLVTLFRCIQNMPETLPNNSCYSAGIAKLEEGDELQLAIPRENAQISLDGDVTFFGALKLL
row,EC50 (read off the curve) [nM],Binder
1,~0.09,B1
2,~0.2,B3
3,~0.1,B4
4,~0.1,B5
5,~0.2,B6
6,~0.7,B7

# Target: T2, human APRIL protein
# Assay: ELISA, coated APRIL; antibody 2.67 nM
# Protocol: as §2
row,OD450 nm,Binder
1,0.0901,B1
2,0.0561,B2
3,0.0613,B3
4,0.0614,B7

# Target: T2, human APRIL protein
# Assay: ELISA, coated APRIL; antibody 0.534 nM
# Protocol: as §2
row,OD450 nm,Binder
1,0.0668,B1
2,0.0544,B2
3,0.0553,B3
4,0.0565,B7

# Target: T2, human APRIL protein
# Assay: ELISA, coated APRIL; antibody 0.0213 nM
# Protocol: as §2
row,OD450 nm,Binder
1,0.0733,B1
2,0.0532,B2
3,0.0534,B3
4,0.0547,B7

# Target: T2, human APRIL protein
# Assay: ELISA, coated APRIL; antibody 0 nM (blank)
# Protocol: as §2
row,OD450 nm,Binder
1,0.0847,B1
2,0.0542,B2
3,0.0565,B3
4,0.0655,B7
